Laboratory results: patent US20100022459A1

Target: β-amyloid1-42 (UniProt P05067)
Assay: cell-based or functional assay

Substance: D-Trp-Aib (peptide)
- amount of globulomers (densitometry of the 6E10 western blot) (% of the control): 45
